The text below walks through data of publication PMC8163065, “Involvement of the R2R3-MYB transcription factor MYB21 and its homologs in regulating flavonol accumulation in Arabidopsis stamen”.

This series concerns the target T1, GST-MYB21 (Arabidopsis thaliana, UniProt Q9LK95 1-226).
T1 sequence: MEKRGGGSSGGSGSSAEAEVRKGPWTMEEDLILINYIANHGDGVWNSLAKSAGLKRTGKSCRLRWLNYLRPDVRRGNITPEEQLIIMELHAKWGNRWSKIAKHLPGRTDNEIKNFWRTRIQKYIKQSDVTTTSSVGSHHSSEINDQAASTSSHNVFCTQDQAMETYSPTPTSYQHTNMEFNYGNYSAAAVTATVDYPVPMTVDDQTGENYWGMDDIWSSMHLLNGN
Put plainly: EMSA; LightShift Chemiluminescent EMSA kit (Thermo), per manufacturer; buffer, salt, pH and temperature not stated. Particulars: protein: recombinant; tags: N-terminal GST (pGEX-4T-1); label: biotin (via primer S18, 5' tail); blunt.

B1: GARE2 FLS1 promoter probe (dsDNA)
DNA 1: AGCCAGTGGCGATAAGCTGGGCCTTGTCTTGTTATATGGGCCTTGAATC
DNA 2: GATTCAAGGCCCATATAACAAGACAAGGCCCAGCTTATCGCCACTGGCT
Turning to B1, the binding result is “binds”.

B2: GARE1 FLS1 promoter probe (dsDNA)
DNA 1: AGCCAGTGGCGATAAGCTCTCACCTTTTTTTTGTTATTTTATATCTTAAG
DNA 2: CTTAAGATATAAAATAACAAAAAAAAGGTGAGAGCTTATCGCCACTGGCT
Consider B2, for which the binding result is “binds”.
